Experimental findings from patent US20230063794A1, “STAPLED TRIAZOLE CO-AGONISTS OF THE GLUCAGON AND GLP-1 RECEPTORS” (Merck Sharp & Dohme LLC, priority 2019, published 2023) are described below.

Starred links: 1 amine or outer side, 2 acyl side, 3 side chain; linkers in the order of their positions; H or OH if unused. Positions of bridges follow the written chain, without caps; N, C: chain ends. Non-standard residues stand in square brackets, D forms with d. Residues, ends and D or L forms follow the SMILES beside them. Groups on a side chain read outwards from the residue. Triazole bridges read from a SMILES are 1,4-linked. No end group written: not given here. *: point of attachment. Peg3N3Ala = O-(2-(2-(2-azidoethoxy)ethoxy)ethyl)-L-serine, [N-]=[N+]=NCCOCCOCCOC[C@H](N[*:1])C(=O)[*:2]; Lys(N3) = [N-]=[N+]=NCCCC[C@H](N)C(=O)O; γGlu = O=C(O)[C@H](CCC(=O)[*:2])N[*:1]; Met(O2) = CS(=O)(=O)CC[C@H](N)C(=O)O; Palmitoyl = CCCCCCCCCCCCCCCC(=O)*; dPra = C#CC[C@@H](N)C(=O)O; Nle = CCCC[C@H](N)C(=O)O; Ac4c = NC1(C(=O)O)CCC1; Aib = CC(C)(N)C(=O)O

For one assay, the target named is T1, human GCGR (Homo sapiens, UniProt P47871).
T1 construct: expressed in transfected cells; grown under Blasticidin and Hygromycin selection
The assay is described as follows: cAMP activity assay in cells expressing human GCGR. In kind it is cell-based. To be noted: ratio of human GCGR EC50 to human GLP1R EC50. The protocol: Activity of the peptides at the Glucagon receptor (GCGR) and GLP-1 receptor (GLP1R) was measured in a cAMP activity assay.
Peptides were dissolved in 100% DMSO and serially diluted to generate 10 point titrations. The peptide solutions were then transferred into 384-well assay plates (150 nL/well). Assay ready frozen cells expressing human GLP1R or human GCGR were suspended in growth media consisting of DMEM medium (GIBCO), 10% FBS (GIBCO), 1× NEAA(GIBCO), 1× P/S (GIBCO), 10 ug/ml Blasticidin (GIBCO) and 200 μg/mL Hygromycin (GIBCO). Cells were then diluted in assay buffer consisting of PBS (GIBCO), 7.5% BSA (Perkin Elmer), 100 μM RO 20-1724 (Sigma), with or without 20% human serum (MP Biomedical). The cell suspensions (15 μL) were then added to the assay plates containing the peptide solutions (30,000 cells/well for human GCGR; 10,000 cells/well for human GLP1R). The cells were incubated for 1 hour at room temperature in the dark. Production of cAMP was determined using HitHunter™ cAMPXS kits (DiscoverX) following manufacturer protocol. The plates were incubated for overnight at room temperature in the dark. Luminescence was measured using an EnVision Multilabel plate reader (Perkin Elmer). Native GLP-1 and Glucagon (Bachem) are used as control peptides. EC50 values were calculated using uses a 4 parameter logistic fit based on the Levenberg-Marquardt algorithm.

Assay [1] concerns the target human GLP-1 receptor (GLP1R) (human, UniProt P43220 24-463). The assay is described as follows: cell-based or functional assay.
Assay [2] deals with human Glucagon receptor (GCGR) (human, UniProt P47871 26-477). Kind of assay: cell-based or functional assay.
human Glucagon receptor (GCGR), sequence (P47871 26-477): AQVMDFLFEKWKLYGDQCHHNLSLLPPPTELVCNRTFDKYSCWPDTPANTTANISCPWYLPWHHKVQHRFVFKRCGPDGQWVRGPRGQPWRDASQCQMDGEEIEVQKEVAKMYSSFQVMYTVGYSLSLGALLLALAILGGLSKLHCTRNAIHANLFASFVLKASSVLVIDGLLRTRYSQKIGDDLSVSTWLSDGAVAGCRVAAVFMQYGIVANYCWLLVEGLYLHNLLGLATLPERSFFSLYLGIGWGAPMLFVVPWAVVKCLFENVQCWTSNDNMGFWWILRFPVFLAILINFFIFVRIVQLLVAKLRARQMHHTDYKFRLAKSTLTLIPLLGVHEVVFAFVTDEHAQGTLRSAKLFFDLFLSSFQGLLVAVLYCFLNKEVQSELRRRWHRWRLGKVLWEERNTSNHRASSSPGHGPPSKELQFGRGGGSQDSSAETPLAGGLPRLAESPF

T1 sequence (P47871 26-477): as above

As to `CCCCCCCCCCCCCCCC(=O)N[C@@H](CCC(=O)N[C@@H](CCC(=O)NCCCC[C@H](NC(=O)[C@H](CC(=O)O)NC(=O)[C@H](CO)NC(=O)[C@@H](NC(=O)[C@H](Cc1ccccc1)NC(=O)[C@@H](NC(=O)CNC(=O)[C@H](CCC(N)=O)NC(=O)[C@@H](CO)NC(=O)[C@@H](N)Cc1c[nH]cn1)[C@@H](C)O)[C@@H](C)O)C(=O)N[C@@H](CO)C(=O)N[C@@H](CCCCN)C(=O)N[C@@H](Cc1ccc(O)cc1)C(=O)N[C@@H](CC(C)C)C(=O)N[C@@H](CC(=O)O)C(=O)N[C@@H](C)C(=O)N[C@@H](CCCNC(=N)N)C(=O)N[C@@H](C)C(=O)N[C@@H](C)C(=O)N[C@@H](CCC(N)=O)C(=O)N[C@@H](CC(=O)O)C(=O)N[C@@H](Cc1ccccc1)C(=O)N[C@H](C(=O)N[C@@H]1Cc2cn(nn2)CCCC[C@@H](C(=O)N[C@H](C(N)=O)[C@@H](C)O)NC(=O)[C@H](CC(C)C)NC(=O)[C@H](CC(C)C)NC(=O)[C@H](Cc2c[nH]c3ccccc23)NC1=O)C(C)C)C(=O)O)C(=O)O` [compound 15] (H-H[dS]QGTFTSDK([γGlu-γGlu-Palmitoyl])SKYLDARAAQDFV[dPra]WLL[Lys(N3)]T-NH2; triazole 24-28), on human GCGR, the “hGCGR/hGLP1R (hTone)” value is 0.72.

B1: TP531 (peptide)
peptide: HXQGTFTSDKSKYLDERAAXDFVXWLLDT
modifications: D-Ser at 2; pra at 20 and Nle(εN3) at 24 cyclized to a triazole containing ring; C-terminal amide
B1: the “GLP1R EC50 human (nM), cAMP activity assay” value (shortened to “GLP1R EC50 human (nM)”) in assay [1] was determined as 0.168 nM. In addition, in assay [2], the “GCGR EC50 human (nM), cAMP activity assay” value (“GCGR EC50 human (nM)” for short) came to 0.323 nM.

Take H[Aib]QGTFTSDKSKYLD[Aib]RAAQDFV[dPra]WLM[Lys(N3)]TK-{γGlu-NH2} (triazole 24-28; also: lower-case v at 23 not defined) [TP533]: in assay [1], the “GLP1R EC50 human (nM)” value amounted to 3.11 nM. Besides, in assay [2], the “GCGR EC50 human (nM)” value is 5 nM.

B2: TP835 (peptide)
peptide: HXQGTFTSDXSKYLDARAAQDFVXWLLXT
modifications: D-Ser at 2; Lys 10 conjugated to γEγE-C16 fatty acid; pra at 24 and Nle(εN3) at 28 cyclized to a triazole containing ring; C-terminal amide
Consider B2, for which the “GLP1R EC50 human (nM)” value in assay [1] was 0.199 nM. The “GCGR EC50 human (nM)” value in assay [2] stood at 0.143 nM.

On to H[dS]QGTFTSDK([γGlu-γGlu-Palmitoyl])SKYLDARAA[dPra]DFV[Lys(N3)]WLLDT-NH2 (triazole 20-24) [TP732], for which the “GLP1R EC50 human (nM)” value in assay [1] came out at 0.123 nM. In assay [2], the “GCGR EC50 human (nM)” value is 0.052 nM.

B3: TP530 (peptide)
peptide: HXQGTFTSDKSKYLDERAAXDFVXWLLDT
modifications: D-Ser at 2; Nle(εN3) at 20 and pra at 24 cyclized to a triazole containing ring; C-terminal amide
In the case of B3, the “GLP1R EC50 human (nM)” value in assay [1] worked out at 0.03 nM. The “GCGR EC50 human (nM)” value in assay [2] is 0.06 nM.

H[Aib]QGTFTSDK([γGlu-γGlu-Palmitoyl])SKYLD[Aib][dPra]AAQ[Lys(N3)]FVQWL[Met(O2)]DTK-{γGlu-NH2} (triazole 17-21) [TP849]: the “GLP1R EC50 human (nM)” value in assay [1] amounted to 0.041 nM. For the same molecule, in assay [2], the “GCGR EC50 human (nM)” value was determined as 0.25 nM.

B4: TP852 (peptide)
peptide: HXQGTFTSDXSKYLDARAAQDFVXWLLXT
modifications: D-Ser at 2; Lys 10 conjugated to γEγE-C16 fatty acid; Nle(εN3) at 24 and pra at 28 cyclized to a triazole containing ring; C-terminal amide
Regarding B4, the “GLP1R EC50 human (nM)” value in assay [1] was 0.109 nM. For the same molecule, the “GCGR EC50 human (nM)” value in assay [2] is 0.059 nM.

B5: TP487 (peptide)
peptide: HXQGTFTSDXSKYLDERAAXDFVXWLLDT
modifications: D-Ser at 2; Lys 10 conjugated to γEγE-C16 fatty acid; Nle(εN3) at 20 and pra at 24 cyclized to a triazole containing ring; C-terminal amide
For B5, the “GLP1R EC50 human (nM)” value in assay [1] is 0.22 nM. Also, in assay [2], the “GCGR EC50 human (nM)” value is 0.09 nM.

Turning to H[Aib]QGTFTSDK([γGlu-γGlu-Palmitoyl])SKYLD[Aib][dPra]AAQ[Lys(N3)]FVQWL[Nle]DT-NH2 (triazole 17-21) [TP841], the “GLP1R EC50 human (nM)” value in assay [1] was determined as 0.414 nM. Besides, the “GCGR EC50 human (nM)” value in assay [2] was determined as 0.819 nM.

B6: TP862 (peptide)
peptide: H[Aib]QGTFTSDKSKYLD[Ac4c]RAAQDFV[dPra]WL[Met(O2)][Lys(N3)]TK-{γGlu-NH2}
modifications: triazole 24-28; not fully specified (residue 10); printed as HUQGTFTSDK(γEγEC16)SKYLDAcbRAAQDFVpra*WL2Nle(ϵN3)*T / KγE-NH2
Consider B6, for which the “GLP1R EC50 human (nM)” value in assay [1] worked out at 0.042 nM. Moreover, the “GCGR EC50 human (nM)” value in assay [2] was 0.139 nM.

For H[Aib]QGTFTSDK([γGlu-γGlu-Palmitoyl])SKYLD[Ac4c][dPra]AAQ[Lys(N3)]FVQWL[Met(O2)]DTK-{γGlu-NH2} (triazole 17-21) [TP858], in assay [1], the “GLP1R EC50 human (nM)” value came out at 0.042 nM. For the same molecule, the “GCGR EC50 human (nM)” value in assay [2] is 0.064 nM.

B7: TP488 (peptide)
peptide: HXQGTFTSDXSKYLDERAAXDFVXWLLDT
modifications: D-Ser at 2; Lys 10 conjugated to γEγE-C16 fatty acid; pra at 20 and Nle(εN3) at 24 cyclized to a triazole containing ring; C-terminal amide
As for B7, the “GLP1R EC50 human (nM)” value in assay [1] came to 0.042 nM. The “GCGR EC50 human (nM)” value in assay [2] came out at 0.04 nM.

Consider H[dS]QGTFTSDK([γGlu-γGlu-Palmitoyl])SKYLD[dPra]RAA[Lys(N3)]DFVQWLLDT-NH2 (triazole 16-20) [TP731], for which, in assay [1], the “GLP1R EC50 human (nM)” value worked out at 0.034 nM. In addition, the “GCGR EC50 human (nM)” value in assay [2] came to 0.03 nM.

On to H[dS]QGTFTSDK([γGlu-γGlu-Palmitoyl])SKYLDA[dPra]AAQ[Lys(N3)]FVQWLLDT-NH2 (triazole 17-21) [TP733], for which the “GLP1R EC50 human (nM)” value in assay [1] amounted to 0.54 nM. The “GCGR EC50 human (nM)” value in assay [2] was 0.279 nM.

Regarding H[Aib]QGTFTSDK([γGlu-γGlu-Palmitoyl])SKYLD[dPra]RAA[Lys(N3)]DFVQWL[Nle]DT-NH2 (triazole 16-20) [TP837], in assay [1], the “GLP1R EC50 human (nM)” value was found to be 0.042 nM. In addition, the “GCGR EC50 human (nM)” value in assay [2] stood at 0.048 nM.

H[Aib]QGTFTSDK([γGlu-γGlu-Palmitoyl])SKYLD[dPra]RAA[Lys(N3)]DFVQWL[Met(O2)]DTK-{γGlu-NH2} (triazole 16-20) [TP845]: the “GLP1R EC50 human (nM)” value in assay [1] was determined as 0.027 nM. The “GCGR EC50 human (nM)” value in assay [2] is 0.134 nM.

For the molecule H[dS]QGTFTSDK([γGlu-γGlu-Palmitoyl])SKYLDA[dPra]AAQDFV[Peg3N3Ala]WLLDT-NH2 (triazole 17-24) [TP920], in assay [1], the “GLP1R EC50 human (nM)” value turned out to be 0.416 nM. For the same molecule, in assay [2], the “GCGR EC50 human (nM)” value amounted to 0.115 nM.

With H[Aib]QGTFTSDK([γGlu-γGlu-Palmitoyl])SKYLD[Ac4c]RAA[dPra]DFV[Lys(N3)]WL[Met(O2)]DTK-{γGlu-NH2} (triazole 20-24) [TP860], the “GLP1R EC50 human (nM)” value in assay [1] is 0.042 nM. Further, in assay [2], the “GCGR EC50 human (nM)” value is 0.077 nM.

With H[Aib]QGTFTSDK([γGlu-γGlu-Palmitoyl])SKYLD[Aib]RAAQDFV[dPra]WL[Met(O2)][Lys(N3)]TK-{γGlu-NH2} (triazole 24-28) [TP851], the “GLP1R EC50 human (nM)” value in assay [1] was 0.025 nM. For the same molecule, the “GCGR EC50 human (nM)” value in assay [2] is 0.109 nM.

Regarding H[Aib]QGTFTSDKSKYLD[Aib]RAAQDFV[Lys(N3)]WLM[dPra]TK-{γGlu-NH2} (triazole 24-28) [TP532], the “GLP1R EC50 human (nM)” value in assay [1] turned out to be 0.14 nM. For the same molecule, the “GCGR EC50 human (nM)” value in assay [2] came to 1.07 nM.

For H[Aib]QGTFTSDK([γGlu-γGlu-Palmitoyl])SKYLD[Aib]RAA[dPra]DFV[Lys(N3)]WL[Met(O2)]DTK-{γGlu-NH2} (triazole 20-24) [TP847], the “GLP1R EC50 human (nM)” value in assay [1] was 0.024 nM. Also, the “GCGR EC50 human (nM)” value in assay [2] was found to be 0.107 nM.
